Assay results: patent publication US10118965B2, “Compositions and methods related to anti-EGFR antibody drug conjugates” (LegoChem Biosciences, Inc., priority 2015, dated 2018)
Where a SMILES comes first, the peptide text is derived from it. [ ]: non-standard residue; d: D form. Dolaproine = CO[C@@H]([C@@H]1CCCN1)[C@@H](C)C(=O)O; Dil = CC[C@H](C)[C@H](NC)[C@@H](CC(=O)O)OC; NMeV = CN[C@H](C(=O)O)C(C)C

Columns and labels:
[1] = molecular target: epidermal growth factor receptor (EGFR) (human) (UniProt P00533); experiment: flow cytometry on A431 cells, 0.5 µg/mL primary antibody, anti-human IgG1-PE secondary
MCF-7 cells = experiment: In vitro cytotoxicity, SRB assay, MCF-7 cells; assay type: cell-based; conditions: MCF7 (EGFR low), 72 hours
Method: (§1) A431 cells, which express high levels of EGFR, and MCF-7 cells, which express low levels of EGFR, were plated at about 1000 cells per well in a 96-well plate in 100 μL of media. HCC-827 cells, which express an intermediate level of EGFR were plated at about 500 cells per well in a 96-well plate in 100 μL of media. The cells were incubated at 37° C. in 5% CO2 for 24 hours. […] The cells were incubated for 72 hours and then fixed for 1 hour at 4° C. after adding 100 μL of ice-cold 10% tricholoracetic acid to each well. Viable cells were counted using SRB dye (Sulphorhodamine, Sigma S 1402) and a Molecular Devices SpectraMax 190 plate reader running Softmax Pro v5, monitoring absorbance at 540 nm (FIG. 12).

HCC-827 cells = experiment: In vitro cytotoxicity, SRB assay, HCC-827 cells; assay type: cell-based; conditions: HCC-827 (EGFR Intermediate: del E746_A750), 72 hours
Method: as §1

A431 cells = experiment: In vitro cytotoxicity, SRB assay, A431 cells; assay type: cell-based, human; conditions: A431 (EGFR high), 72 hours
Method: as §1

[2] = molecular target: epidermal growth factor receptor (EGFR) (human) (UniProt P00533); experiment: flow cytometry on A431 cells, 2 µg/mL human IgG1 negative control, anti-human IgG1-PE secondary (cell only: 11.7)
[3] = molecular target: epidermal growth factor receptor (EGFR) (human) (UniProt P00533); experiment: flow cytometry on A431 cells, 2 µg/mL human IgG1 negative control, anti-human IgG1-PE secondary (cell only: 10.84)
[4] = molecular target: epidermal growth factor receptor (EGFR) (human) (UniProt P00533); experiment: flow cytometry on A431 cells, 2 µg/mL human IgG1 negative control, anti-human IgG1-PE secondary (cell only: 11.76)

For Erbitux(LC)-G7CVIM (antibody), the Geometric Mean (PE-A fluorescence) [1] was 160.
`CC[C@H](C)[C@@H]([C@@H](CC(=O)N1CCC[C@H]1[C@H](OC)[C@@H](C)C(=O)N[C@@H](Cc1ccccc1)C(=O)OC)OC)N(C)C(=O)[C@@H](NC(=O)[C@@H](NC)C(C)C)C(C)C` [MMAF-Ome, monomethyl auristatin F-Ome] (H-[NMeV]V[Dil][Dolaproine]F-OMe) gave an IC50 (MCF-7 cells) of 1.81 nM, an IC50 (HCC-827 cells) of 1.99 nM and an IC50 (A431 cells) of 1.11 nM.
Work on Human IgG1 (antibody) yielded a Geometric Mean (PE-A fluorescence) [2] of 10.9, a Peak Channel (PE-A fluorescence) [3] of 11.4 and a Median (PE-A fluorescence) [4] of 11.4.
